Data published in PMC6978305, “Formation of S. pombe Erh1 homodimer mediates gametogenic gene silencing and meiosis progression” (Scientific Reports, 2020).

Target: the molecule itself
Assay: SEC-MALS; SEC-MALLS of purified recombinant proteins in solution

B1: S. pombe Erh1, wild type, recombinant (natural protein, UniProt G2TRN4 1-104, looked up)
chain: MSPPPAESHIILLIQQGSDPKTRIWSDHCSLRSAIEYIVGVYQTNQAVSEKESIDVSRFFNFFDEIYDCVPLVYDRHFRAYIPHEKQWLLHHAQEYLTAARQIP
notes: Erh1, S. pombe, full length, from plasmid pMG921 (pGEX-6P1); After 3C cleavage some residues of the N-terminal tag remain (4 of them are seen in protomer B of the crystal structure); also called wild-type Erh1; apo-Erh1; source: E. coli BL21 (DE3) Codon+, purified (GSH-sepharose, 3C cleavage, Superdex 75); not shown: GST, N-terminal, cleaved
stoichiometry N: 2
